Source: PMC8236860, “Regulation of Dual Activity of Ascorbate Peroxidase 1 From Arabidopsis thaliana by Conformational Changes and Posttranslational Modifications” (Frontiers in Plant Science, 2021)

B1: Cytosol type APX1 from Arabidopsis thaliana (AtAPX1), recombinant (enzyme, UniProt Q05431 1-250, looked up)
chain: MTKNYPTVSEDYKKAVEKCRRKLRGLIAEKNCAPIMVRLAWHSAGTFDCQSRTGGPFGTMRFDAEQAHGANSGIHIALRLLDPIREQFPTISFADFHQLAGVVAVEVTGGPDIPFHPGREDKPQPPPEGRLPDATKGCDHLRDVFAKQMGLSDKDIVALSGAHTLGRCHKDRSGFEGAWTSNPLIFDNSYFKELLSGEKEGLLQLVSDKALLDDPVFRPLVEKYAADEDAFFADYAEAHMKLSELGFADA
notes: Ascorbate peroxidase 1, cytosolic (AtAPX1), Arabidopsis thaliana; 27 kDa on SDS-PAGE; Heme enzyme; also called ascorbate peroxidase 1; recombinant AtAPX1 protein; source: E. coli BL21 (DE3), pET28a, purified (Ni-NTA, thrombin cleavage of the His-tag, SEC)
B2: S-nitrosylated recombinant AtAPX1 (GSNO-treated) (enzyme, Arabidopsis thaliana, UniProt Q05431 1-250, looked up)
chain: B1 chain
modifications: S-nitrosylation of cysteine (GSNO treatment); positions not determined in this paper
notes: Ascorbate peroxidase 1, cytosolic (AtAPX1), Arabidopsis thaliana; same construct as m1; not mapped here; also called S-nitrosylated APX1; GSNO-treated AtAPX1; source: E. coli BL21 (DE3), purified, then incubated with GSNO (0-1 mM) at 25°C for 30 min in the dark
B3: Tyrosine-nitrated recombinant AtAPX1 (SIN-1-treated) (enzyme, Arabidopsis thaliana, UniProt Q05431 1-250, looked up)
chain: B1 chain
modifications: tyrosine nitration (SIN-1 treatment); positions not determined in this paper
notes: Ascorbate peroxidase 1, cytosolic (AtAPX1), Arabidopsis thaliana; same construct as m1; also called SIN-1-treated protein; source: E. coli BL21 (DE3), purified, then incubated with SIN-1 (0-10 mM) at 37°C for 1 h in the dark
B4: S-sulfhydrated recombinant AtAPX1 (NaHS-treated) (enzyme, Arabidopsis thaliana, UniProt Q05431 1-250, looked up)
chain: B1 chain
modifications: S-sulfhydration of cysteine (NaHS treatment); positions not determined in this paper
notes: Ascorbate peroxidase 1, cytosolic (AtAPX1), Arabidopsis thaliana; same construct as m1; not mapped here; also called NaHS-treated AtAPX1; source: E. coli BL21 (DE3), purified, then incubated with NaHS (10 nM-100 μM) at 4°C for 30 min in the dark

Target: the molecule itself
Test: native gel or EMSA; 10% native-PAGE of purified recombinant AtAPX1 (total protein, SEC fractions F1-F3, and protein treated with GSNO, NaHS or SIN-1)

| Protein | stoichiometry N | binding result |
| --- | --- | --- |
| B1 | 2 | – |
| B2 | – | binds |
| B3 | – | binds |
| B4 | – | binds |
